This passage reports EC50 results from US20190211111A1.

The target of the test is GCN4 peptide-fused αCD19 Fab (Rodgers et al.). In words: ELISA, coated GCN4 peptide-fused αCD19 Fab, detection with anti-human lambda-HRP.
Substance αGCN4-Fab (LC-G202X, HC-K129X, X=pAcF) registered a half-maximal effective concentration (EC50) of 1 nM.
With αGCN4-Fab (LC-S155X, HC-K129X, X=pAcF) the figure was 1 nM; with αGCN4-Fab (LC-S193X, HC-K129X, X=pAcF), 1 nM.

The term EC50 denotes the concentration giving half of the maximal effect.
